# Measurements as given in publication PMC2752815.
# Target: mouse βB1-crystallin (mouse) (UniProt Q9WVJ5)
# Assay: AUC
substance,measurement,value
mouse βB1-crystallin (from UniProt Q9WVJ5 1-250) (natural protein),Kd,1.55 µM
same,stoichiometry N,2
